Where a chain is given by its changes, count along the chain named. In names and notes the source's numbering stands. Blank lines part the entries; values can stand above or below the molecule they belong to.
Tests used:
[1] = target: T1, CD39 mutant 5 (Q96A, N99A, E143A, R147E) (human, UniProt P49961 1-510); experiment: flow cytometry on transfected HEK293T cells
T1 construct: Transfected in HEK293T cells
T1 chain: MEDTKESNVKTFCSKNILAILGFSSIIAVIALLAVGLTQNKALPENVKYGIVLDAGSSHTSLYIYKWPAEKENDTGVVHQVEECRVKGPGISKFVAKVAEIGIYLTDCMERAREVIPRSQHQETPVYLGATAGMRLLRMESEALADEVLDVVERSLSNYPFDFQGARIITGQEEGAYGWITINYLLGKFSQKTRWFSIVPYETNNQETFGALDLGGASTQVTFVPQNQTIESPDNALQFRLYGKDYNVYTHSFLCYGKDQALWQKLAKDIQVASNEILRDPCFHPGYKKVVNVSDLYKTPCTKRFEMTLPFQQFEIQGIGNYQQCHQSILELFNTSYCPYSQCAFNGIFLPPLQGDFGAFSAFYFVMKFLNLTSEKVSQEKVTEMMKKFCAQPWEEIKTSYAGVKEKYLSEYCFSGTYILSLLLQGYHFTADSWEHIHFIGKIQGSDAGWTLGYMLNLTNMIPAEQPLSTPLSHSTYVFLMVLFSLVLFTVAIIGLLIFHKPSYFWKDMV

[2] = target: T2, CD39 mutant 2B (E110A, R113T, E114A) (human, UniProt P49961 1-510); experiment: flow cytometry, HEK293T cells transfected with mutant 2B
T2 construct: Transfected in HEK293T cells
T2 chain: T1 chain with A96Q, A99N, E110A, R113T, E114A, A143E, E147R

[3] = target: T3, Recombinant human CD39-L3 (NTPDase3, ENTPD3) (human, UniProt O75355 44-485, limits assumed); experiment: ELISA on coated RechuCD39-L3, OD 450 nm [top panel CHS2-I-391]
T3 construct: Coated in ELISA
T3 sequence: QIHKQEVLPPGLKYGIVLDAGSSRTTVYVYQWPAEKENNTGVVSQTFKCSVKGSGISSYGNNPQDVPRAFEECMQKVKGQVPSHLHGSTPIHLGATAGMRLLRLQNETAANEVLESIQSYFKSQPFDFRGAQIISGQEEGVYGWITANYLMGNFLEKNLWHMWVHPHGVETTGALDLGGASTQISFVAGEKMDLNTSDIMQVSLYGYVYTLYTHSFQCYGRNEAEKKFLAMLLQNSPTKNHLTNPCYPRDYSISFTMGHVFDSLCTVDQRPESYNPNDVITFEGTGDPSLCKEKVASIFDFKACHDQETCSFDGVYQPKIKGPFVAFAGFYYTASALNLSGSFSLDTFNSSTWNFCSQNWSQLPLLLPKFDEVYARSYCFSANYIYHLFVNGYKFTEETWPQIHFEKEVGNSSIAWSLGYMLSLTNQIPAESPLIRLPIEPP
Procedure: Wells were washed in TBS Tween 20, and further saturated 2H at RT in TBS Blocking buffer. Dose range concentration of primary antibody was incubated in TBS blocking buffer for 2h at RT. Wells were washed in TBS Tween 20. […] Optical density was measured on Enspire at OD=450.

[4] = Stability in reference formulation, thermal shift stability assay (aggregation temperature); type: physicochemical; settings: in words
Procedure: All antibodies were tested for stability in the following reference formulation at a concentration of approximatively 7 mg/mL: pH 6.0; histidine buffer (10 mM); sucrose (200 mM); NaCl (50 mM); Polysorbate 80 (PS80) (0.2 g/L). […] So for this study the concentration is set at 0.2 g/L.
The stability of the formulations was monitored in two storage conditions (at +5° C.±3° C. and at +40±3° C. For each study, 3 times point were performed: TO, T15D (15 days) and T1M (1 month). A freeze thaw (F/T) and a thermal shift stability assay (TSSA) were conducted for the format comparison. To perform F/T cycles, the samples were frozen at least 2 hours at −20° C. and thawed at least 1 hour at room temperature, the F/T cycle is repeated three times and samples are tested 24h after the last Freeze/Thaw cycle. At each time point, the following tests were performed: • Particulate Matter (MFI) • Visual Inspection (Appearance) • Impurities (SE-HPLC) • Turbidity (400 nm) • Protein Concentration (280 nm) (performed with Nanodrop, Thermo Fisher Scientific Inc.)
Aggregation temperature is correlated with the intrinsic stability. The higher the TAgg, the higher the stability of the protein. […]

binding result [2]: binds
binding result [3]: no binding (tested: 50 ug/ml)
B1: Antibody I-391, Fc silent recombinant chimeric human IgG1 with heavy chain N297Q mutation (antibody, V domains shown)
VH: QIQLVQSGPELKKPGETVKISCKASGYTFRNYGMNWVKQAPGKGLKWMGWINTYTGEPTYADDFKGRFAFSLATSASTAYLQISNLKNEDTATYFCARKAYYGSNYYFDYWGQGTTLTVSS
VL: DIVMTQSHKFMSTSVGDRVSITCKASQDVSTAVAWYQQKPGQSPKLLIYSASYRYTGVPDRFTGSGSGTDFTFTISTVQAEDLAVYYCQQHYTTPPYTFGGGTKLEIKR
binding result [1]: no binding (tested: dose range 10 to 0.0006 µg/ml)

B2: I-392: anti-CD39 antibody, VH SEQ ID NO: 8 and VL SEQ ID NO: 9, chimeric human IgG1 with N297Q mutation (antibody, V domains shown)
VH: QIQLVQSGPEVKKPRETVKISCKASGYTFTHYGMNWVKQAPGKGLKWMGWINTYTGEPTYADDFKGRFAFSLEASASTAYLQINNLKNEDTATYFCARRRYEGNYVFYYFDYWGQGTTLTVSS
VL: DIQMTQSPASLSASVGETVTITCRASENIYSYFSWYQQKQGKSPQLLVYTAKTLAEGVPSRFSGSGSGTQFSLKINSLQPEDFGSYYCQHHYVTPYTFGGGTKLEIK
stability (aggregation) [4]: relatively low inherent stability

— patent US20190153113A1, “CD39 VASCULAR ISOFORM TARGETING AGENTS” (INNATE PHARMA, priority 2015, published 2019)
